Assay results taken from patent US20200199533A1 (KING ABDULLAH UNIVERSITY OF SCIENCE AND TECHNOLOGY, published 2020).

How the values were obtained:
[1] = biological target: T1, CD34, native glycoprotein from human HSPCs (KG1a, CD34^pos-BM, CD34^pos-UCB, CD34^pos-AML) (human, UniProt P28906 32-385, native glycosylation (about 120-130 kDa form); sialylated O-glycans and tyrosine sulfation are shown to matter for selectin binding); test: SPR; CD34 captured from KG1a lysate on 563-mAb, E-Ig injected, 150 mM NaCl; apparent rate constant; 3rd experiment
T1 construct: mature; also called E-selL CD34
T1 sequence (looked up): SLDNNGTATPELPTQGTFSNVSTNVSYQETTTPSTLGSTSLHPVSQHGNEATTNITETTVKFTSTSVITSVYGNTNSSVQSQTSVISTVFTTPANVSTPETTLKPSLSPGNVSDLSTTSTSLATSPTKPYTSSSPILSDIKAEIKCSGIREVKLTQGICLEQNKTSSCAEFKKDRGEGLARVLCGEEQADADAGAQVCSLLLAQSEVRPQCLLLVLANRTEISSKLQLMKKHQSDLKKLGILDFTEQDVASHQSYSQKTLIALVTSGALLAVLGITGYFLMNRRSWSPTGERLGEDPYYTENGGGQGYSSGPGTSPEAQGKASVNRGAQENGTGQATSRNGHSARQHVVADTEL

[2] = biological target: T1, CD34, native glycoprotein from human …; test: SPR; CD34 captured from CD34^pos-BM lysate on 563 mAb; apparent rate constant after the last E-Ig injection
[3] = biological target: T2, PSGL-1, native glycoprotein from human HSPCs (KG1a, CD34^pos-BM) (human, UniProt Q14242 42-412, native glycosylation and tyrosine sulfation); test: SPR; PSGL-1 captured from KG1a lysate on KPL-1-mAb, E-Ig injected (3.9-2000 nM), 150 mM NaCl; steady-state model; 1st experiment
T2 construct: mature; also called P-selectin glycoprotein ligand-1
T2 sequence (looked up): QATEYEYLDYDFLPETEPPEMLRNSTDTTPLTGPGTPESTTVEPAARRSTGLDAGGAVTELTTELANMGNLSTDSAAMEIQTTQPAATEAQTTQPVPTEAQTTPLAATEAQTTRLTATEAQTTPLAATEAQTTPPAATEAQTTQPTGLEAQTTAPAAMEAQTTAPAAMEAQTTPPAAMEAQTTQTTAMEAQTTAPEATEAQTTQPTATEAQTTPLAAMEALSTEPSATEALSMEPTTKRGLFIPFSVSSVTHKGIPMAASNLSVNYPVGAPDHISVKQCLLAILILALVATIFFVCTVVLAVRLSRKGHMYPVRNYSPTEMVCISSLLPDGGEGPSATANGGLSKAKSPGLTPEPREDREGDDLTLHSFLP

[4] = biological target: T2, PSGL-1, native glycoprotein from human …; test: SPR; PSGL-1 captured from KG1a lysate on KPL-1-mAb, E-Ig injected (3.9-2000 nM), 150 mM NaCl; steady-state model; 2nd experiment

B1: recombinant E-selectin human immunoglobulin chimeric protein (Fc fusion)
chain: WSYNTSTEAMTYDEASAYCQQRYTHLVAIQNKEEIEYLNSILSYSPSYYWIGIRKVNNVWVWVGTQKPLTEEAKNWAPGEPNNRQKDEDCVEIYIKREKDVGMWNDERCSKKKLALCYTAACTNTSCSGHGECVETINNYTCKCDPGFSGLKCEQIVNCTALESPEHGSLVCSHPLGNFSYNSSCSISCDRGYLPSSMETMQCMSSGEWSAPIPACNVVECDAVTNPANGFVECFQNPGSFPWNTTCTFDCEEGFELMGAQSLQCTSSGNWDNEKPTCKAVTCRAVRQPQNGSVRCSHSPAGEFTFKSSCNFTCEEGFMLQGPAQVECTTQGQWTQQIPVCEAFQCTALSNPERGYMNCLPSASGSFRYGSSCEFSCEQGFVLKGSKRLQCGPTGEWDNEKPTCEAVRCDAVHQPPKGLVRCAHSPIGEFTYKSSCAFSCEEGFELHGSTQLECTSQGQWTEEVPSCQVVKCSSLAVPGKINMSCSGEPVFGTVCKFACPEGWTLNGSAARTCGATGHWSGLLPTCEAPTESNIP
[1]
  koff: 0.000331 s⁻¹
[2]
  koff: 0.00019 s⁻¹
[3]
  Kd: 342 nM
[4]
  Kd: 207 nM
